Target: T1, His-NLRP3 (human, UniProt Q96P20 1-1036)
T1 construct: human NLRP3 cloned into pET28a; The methods name only His-NLRP3; also called His-NLRP3-Flag; pET28a-His-NLRP3; source: E. coli (pET28a), IPTG-induced; called purified in the legend
Experiment: pull-down; GST or GST-VDR with His-NLRP3, pulled down on Glutathione MagBeads, immunoblot; incubation 2 h or overnight at 4 °C on a rotator (methods)
Details: both partners purified

T1 sequence (Q96P20 whole entry): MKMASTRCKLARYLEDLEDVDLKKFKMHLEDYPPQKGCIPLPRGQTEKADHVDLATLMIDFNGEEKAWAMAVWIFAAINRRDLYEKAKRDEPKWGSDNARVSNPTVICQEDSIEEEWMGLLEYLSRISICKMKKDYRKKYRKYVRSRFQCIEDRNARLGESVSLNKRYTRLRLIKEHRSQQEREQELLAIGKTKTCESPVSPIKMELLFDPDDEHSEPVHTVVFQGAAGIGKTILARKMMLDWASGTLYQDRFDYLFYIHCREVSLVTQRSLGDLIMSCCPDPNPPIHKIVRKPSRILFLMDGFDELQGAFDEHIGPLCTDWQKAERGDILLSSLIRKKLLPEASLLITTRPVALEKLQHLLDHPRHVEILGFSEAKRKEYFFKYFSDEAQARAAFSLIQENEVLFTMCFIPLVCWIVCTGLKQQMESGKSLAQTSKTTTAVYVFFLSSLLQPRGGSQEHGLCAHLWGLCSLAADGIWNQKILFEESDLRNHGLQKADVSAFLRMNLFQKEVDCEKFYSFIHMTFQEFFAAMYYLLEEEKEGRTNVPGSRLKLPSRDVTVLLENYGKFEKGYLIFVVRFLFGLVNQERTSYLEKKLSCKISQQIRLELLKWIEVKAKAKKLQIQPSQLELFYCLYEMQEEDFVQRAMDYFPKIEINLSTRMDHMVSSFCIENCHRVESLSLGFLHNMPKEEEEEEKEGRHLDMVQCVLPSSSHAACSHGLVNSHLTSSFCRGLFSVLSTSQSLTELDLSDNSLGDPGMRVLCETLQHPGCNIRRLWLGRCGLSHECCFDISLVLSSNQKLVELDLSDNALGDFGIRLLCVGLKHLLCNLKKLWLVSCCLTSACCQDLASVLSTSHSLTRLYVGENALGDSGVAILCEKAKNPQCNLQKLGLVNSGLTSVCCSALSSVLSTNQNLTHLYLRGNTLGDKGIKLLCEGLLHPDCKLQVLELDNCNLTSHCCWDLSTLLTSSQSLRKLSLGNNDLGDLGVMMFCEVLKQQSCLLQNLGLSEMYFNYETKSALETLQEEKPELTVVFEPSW

binding result: binds
B1: GST-human VDR (natural protein, UniProt P11473 1-427, looked up)
chain: MEAMAASTSLPDPGDFDRNVPRICGVCGDRATGFHFNAMTCEGCKGFFRRSMKRKALFTCPFNGDCRITKDNRRHCQACRLKRCVDIGMMKEFILTDEEVQRKREMILKRKEEEALKDSLRPKLSEEQQRIIAILLDAHHKTYDPTYSDFCQFRPPVRVNDGGGSHPSRPNSRHTPSFSGDSSSSCSDHCITSSDMMDSSSFSNLDLSEEDSDDPSVTLELSQLSMLPHLADLVSYSIQKVIGFAKMIPGFRDLTSEDQIVLLKSSAIEVIMLRSNESFTMDDMSWTCGNQDYKYRVSDVTKAGHSLELIEPLIKFQVGLKKLNLHEEEHVLLMAICIVSPDRPGVQDAALIEAIQDRLSNTLQTYIRCRHPPPGSHLLYAKMIQKLADLRSLNEEHSKQYRCLSFQPECSMKLTPLVLEVFGNEIS
notes: human vitamin D receptor in pGEX-6P1; also called GST-VDR; pGEX6p-1-GST-VDR; source: E. coli BL21(DE3), IPTG-induced; called purified in the legend

From publication PMC6904361, “Vitamin D Receptor Inhibits NLRP3 Activation by Impeding Its BRCC3-Mediated Deubiquitination” (Frontiers in Immunology, 2019)
